Source: the DeepSol protein solubility set

assay: soluble on expression in E. coli; label from the status in PepcDB or PDB records

Q: Which “soluble on expression in E. coli” value does the source give for “GQVIARHKVREFNINPVNTPTKSKLHPSVFYDVFPGDKEPAVLSDNDPRLEVKLTESLFSKYKGNVNTEPTENMLVAVDHYAGQLLSLDIPTSELTLKEALYGVDGLEPIDITTSAGFPYVSLGIKKRDILNKETQDTEKMKFYLDKYGIDLPLVTYIKDELRSVDKVRLGKSRLIEASSLNDSVNMRMKLGNLYKAFHQNPGVLTGSAVGCDPDVFWSVIPCLMDGHLMAFDYSNFDASLSPVWFVCLEKVLTKLGFAGSSLIQSICNTHHIFRDEIYVVEGGMPSGCSGTSIFNSMINNIIIRTLILDAYKGIDLDKLKILAYGDDLIVSYPYELDPQVLATLGKNYGLTITPPDKSETFTKMTWENLTFLKRYFKPDQQFPFLVHPVMPMKDIHESIRWTKDPKNTQDHVRSLCMLAWHSGEKEYNEFIQKIRTTDIGKCLILPEYSVLRRRWLDLFHHHHHH” here?
A: soluble

Q: Which “soluble on expression in E. coli” value does the source give for “MSDKDDLIVAGVNQKDKGIWRDFYDRYYAALCSYVEKILFLTDAVEDLVQEVFISVWEGKRTFSDSRELTNYLYRACYNNALLYIRNHQIHDSILNGLPQEEDFEDEEMLYALTVKEEAIRQLYFYIEELPAEQRRIILLRIEGHSWDEIASRLGVSINTVKTQKSRSYKFLREKLANSSYSVLLALIFY” here?
A: not soluble

Q: For “MGSDKIHHHHHHMRILFYCDTVFSFGGVQRVLAEIAKALSGKHEVTILTTDTCTDLSMYGYAESTVRFDSFSYSASSFIERLLCKGYSFLYKHGLPHTRLTSEWYAASFFPSSYKRTLARKINARQCDVVIGVHAFMALHLSAVKSRIRTKTVGWLHNSYEAFFEKETPYLPGLDCFFQVQMGKLDERVVLSHADAGCFFRKMNLCCEVIYNPLTVLPKGRGKKEYRRILAVGRFSFGHKGFDILIKAFSVFVKTHPDWTLEIVGEGPEEALYRSLINEYELEKSIALHPFTKEVQEYYAHSSMYVLSSRWEGFGLVMIEAMAHGLPVIASDLPITRELLKDKDMAVLFETGNIAQLAGCMSYMADRTDWEWMGNKAVEYADTFHIEKVCDSWNNLLKKVVYGTR”, which “soluble on expression in E. coli” value is on record?
A: not soluble

Q: Which “soluble on expression in E. coli” value does the source give for “MTAPFFPRILGAVAFLNQETEPLTMNLQHHFLIAMPALQDPIFRRSVVYICEHNTNGAMGIIVNKPLENLKIEGILEKLKITPEPRDESIRLDKPVMLGGPLAEDRGFILHTPPSNFASSIRISDNTVMTTSRDVLETLGTDKQPSDVLVALGYASWEKGQLEQEILDNAWLTAPADLNILFKTPIADRWREAAKLIGVDILTMPGVAGHALEHHHHHH” here?
A: not soluble

Q: With “MGSDKIHHHHHHMSSSQQIAKNARKAGNILKTISNEGRSDILYKIHDALKANAHAIEEANKIDLAVAKETGLADSLLKRLDLFKGDKFEVMLQGIKDVAELEDPVGKVKMARELDDGLTLYQVTAPVGVLLVIFESRPEVIANITALSIKSGNAAILKGGKESVNTFREMAKIVNDTIAQFQSETGVPVGSVQLIETRQDVSDLLDQDEYIDLVVPRGSNALVRKIKDTTKIPVLGHADGICSIYLDEDADLIKAKRISLDAKTNYPAGCNAMETLLINPKFSKWWEVLENLTLEGGVTIHATKDLKTAYFDKLNELGKLTEAIQCKTVDADEEQDFDKEFLSLDLAAKFVTSTESAIQHINTHSSRHTDAIVTENKANAEKFMKGVDSSGVYWNASTRFADGFRYGFGAEVGISTSKIHARGPVGLDGLVSYQYQIRGDGQVASDYLGAGGNKAFVHKDLDIKTVTL” as the sequence, how does the “soluble on expression in E. coli” value read?
A: soluble

Q: For “SNAGLIDESEQRLVDNIFEFEEKKIREIMVPRTDMVCIYESDSEEKILAILKEEGVTRYPVCRKNKDDILGFVHIRDLYNQKINENKIELEEILRDIIYISENLTIDKALERIRKEKLQLAIVVDEYGGTSGVVTIEDILEEIVGEIQ”, which “soluble on expression in E. coli” value is on record?
A: soluble

Q: With “MSLNPLSRNVIPIEIHRIVAVGDVHGDAERFRQILEMSGVISLRSNSSKQVVWKPRWGTKEGNFFREYGTRLRTTLIQTGDLIDRGEEDLEVLEMAVSLFNEVRTNYTDDKVVLLMGNHELLNLQGHFHYVHSKSMGGFLTRALRKRAFELDGTFGGFILENFTVAYAVADTLFVHAGIDEHVVSDGIERLNREAKQAIRTKNFGHILLGSTGPLWSRKMFLDASNGRCADTKKALASLGVKRVVVGHTPQRSGRVETFCGGSVIAIDVGMSRWMYGNIAALEITVTSYSSGDGEGHHHHHH” as the sequence, how does the “soluble on expression in E. coli” value read?
A: soluble

Q: Which “soluble on expression in E. coli” value does the source give for “VPQIDTRDCGPAVLASVAKHYGSNYSIAYLRELSKTNKQGTTALGIVEAAKKLGFETRSIKADMTLFDYNDLTYPFIVHVIKGKRLQHYYVVYGSQNNQLIIGDPDPSVKVTRMSKERFQSEWTGLAIFLAPQPN” here?
A: not soluble

Q: For “ARVLVVGDVMLDRYWFGEVDRISPEAPVPVVRVARREDRLGGAANVARNVAALGAQVTLIGVVGADEVGLRIERMAAEEGVRTDLVSDTEHPTTLKMRVLGRQQQLLRVDFEQHPEPAALDGISAAVARQLAQHDIVVLSDYAKGVLDRVESIIAAAVGHSLPVLVDPKGDHYERYRGATLVTPNRAEMREAVGRWKTEDELAERAQRLRLDLDLEALLVTRSEQGMTLFTDAGRDHADAAAHEVYDVSGAGDTVLATLAVMRAVGLSWGDAMRWANRAGGIVVGKLGTSVVTAAEL”, which “soluble on expression in E. coli” value is on record?
A: not soluble

Q: For “GPKDNNKTLKPAIAEYIVKKAKQRIALQRWQDELNRRKNHKGMIFVENTVDLEGPPSDFYYINEYKPAPGISLVNEATFGCSCTDCFFQKCCPAEAGVLLAYNKNQQIKIPPGTPIYECNSRCQCGPDCPNRIVQKGTQYSLCIFRTSNGRGWGVKTLVKIKRMSFVMEYVGEVITSEEAERRGQFYDNKGITYLFDLDYESDEFTVDAARYGNVSHFVNHSCDPNLQVFNVFIDNLDTRLPRIALFSTRTINAGEELTFDYQMKGSGDISSDSIDHSPAKKRVRTVCKCGAVTCRGYLN”, which “soluble on expression in E. coli” value is on record?
A: soluble

Q: With “GMEPTRKRKSAGGKPKGKGGWGDRKSGGWRGDHKPSKEGFGGKTRGEGFKKEGFKRDGFKKTGEGFKGKRKAGDSFAGKGERRYKDR” as the sequence, how does the “soluble on expression in E. coli” value read?
A: not soluble

Q: For “MPTNTFFHLPEEKQQRLLDAAQIEFSRHSLQEASIANIVKLAGIPRGSFYQYFENKEDLYFYYFATLRKNSERDLEKQIIAENGDLIEAMDVYFSKMIVEVLTGENASFYRNLFVNMDYRASRRVTDNLATGEEEKNRKQHCHKHRGRKGHAAYAEHLYQIIDHSKLTIETPKEFTWFMQTAMHAVFSTIVDGYRQQRENTAYDSTEAVKQLKMKLSWLKNGAYK”, which “soluble on expression in E. coli” value is on record?
A: not soluble

Q: For “MRAEVKEICKALHLAYIADRFEEVRFETKEQFLRDVLALELSCCQEAKQARLIKKAKFRELKWLKDYEWSGHIHWPATTSREELCDLRFLERKQNVLLLGSPGTGKTHLATALGIQACQQGHEVRFFRVADLVAQLEEALKNGTLGRLKRSLDTCELLILDELGYVPFQKQGSELLFHIIADCYERKSVMVTSNLEFGQWNRVFGDNRLTAALVDRLVHHAHILAFTGESYRLRNALSAIQPSSASGLEP”, which “soluble on expression in E. coli” value is on record?
A: not soluble

Q: With “EDFAKSIQDFIENGKTLEDFRKDFDKIVAKHGWQYNGGRNWRSRIIYETNLRSSYQAGRYAQLQELKETMPYWEYVHNDAVTYPRVEHMHWDGLILRHDDPWWKTHFPINAWGCQCTVI” as the sequence, how does the “soluble on expression in E. coli” value read?
A: not soluble

Q: For “VSAEEQDTRSGGIQVIARAAELLRVLQAHPGGLSQAEIGERVGMARSTVSRILNALEDEGLVASRGARGPYRLGPEITRMATTVRLGVVTEMHPFLTELSRELDETVDLSILDGDRADVVDQVVPPQRLRAVSAVGESFPLYCCANGKALLAALPPERQARALPSRLAPLTANTITDRAALRDELNRIRVDGVAYDREEQTEGICAVGAVLRGVSVELVAVSVPVPAQRFYGREAELAGALLAWVSKVDAWFNGTEDRK”, which “soluble on expression in E. coli” value is on record?
A: not soluble

Q: For “MSLTTIPIWDVQQTPELNISAADYSLLTDLYQLTMAACYTGEGVEQRRASFELFVRRSPEGFGYLIAMGLAQALEYLEKLRFSPEQIAALQATGIFAHAGEGFWSLLAEGRFTGDVWAVPEGTAVFANEPLLRVEAPLWQAQLVETYLLNTLNYQTLVATRAARLRDIAGEQATLLEFGTRRAFSPQASLWAARAALAGGLDATSNVLAALQLGQQPSGTMAHALVMALSAMEGSEEQAFSAFHRYFPGAPLLIDTYDTIAAAQHLAEKVNTGKMELSGVRLDSGDLVSLSKQVRSLLPDVSIFASGDLDEWEIAKLQAAGAEIDGYGLGTKLVTGSPVNGVYKLVEIDDIPVMKKSSGKTTYPGRKQIFRSFGDGQVQADRLGLITDTPLITEKPLLELVVKEGQRLQPRETLSAIRQRTAASVASLPEQTRRLDNPVPVPIQISTALQDLTEVTLQRLNEGHHHHHH”, which “soluble on expression in E. coli” value is on record?
A: not soluble

Q: Which “soluble on expression in E. coli” value does the source give for “MSLRESCKKDLSAGESIRKTRRISVMRSASGNETFGVICRTLYGDFIQFSTKQIVVMSTLFRSLSMSSSAGDSNLFTGNSALKNDSVVAGKPEWAQNSRRRVIPSHLAPKKKTGFHLSSSVSTRKSGGDKKDVFQAENGGEFNLLSFGTNQKRLGTGSFDRVNANSSFFDTSFAGDLTRFDDAVNSSKTQDDFLVYTNDEDMPPSRSIYDLNDEVLISLKSLQNNNEDKTSDANDPKNFRNIFVRDAPKASPSEDSNDQAKQLSNGELAILVFGYPETMANQVIAYFQEFGTILEDFEVLRKPQAMTVGLQDKQFVPIFSGNSWTKITYDNPASAVDALLENGAVFNGVLLGVIPYTKDAVERLQKRKLTSSEDIGSGITTAAAEGHHHHHH” here?
A: soluble

Q: For “MDDIIQQLFKEVERPQLTVNEQALQQYLYREIVRLTLLVEPTISKPQIIGLLSALVKKARHYVNADNQAECIQQLLDLVYQEWRFHCDYQEYFYTDNLLLHRVIRSHRGMPLSIGAIVLYLAAKLQLPIYPVNFPTQLILRAEITESSGKKTVRFINPWDGQFLPLELLLKWLEGEVGYGVELSPELLRRADPAELLERVETVFKMVLTREGKYEQTLRLIEYRLAENPDDPYEIRDRGMVLASMDCYQAAYDDLSYFIDQCPDDPSAAILKSEVKGLEQKSKQNQVHLEHHHHHH”, which “soluble on expression in E. coli” value is on record?
A: soluble

Q: With “MIKEFCAENLTLLPTLDAGQISRVELCDNLAVGGTTPSYGVIKEACQLLHDKKISVATMIRPRGGDFVYNDLELKAMEEDILKAVEAGSDALVLGLLTTENQLDTDAIEQLLPATQGLPLVFHMAFDRIPTDHQHQALDQLIDYGFVRVLTHGSPEATPITDNVEQLKSLVTYANKRIEIMIGGGITAENCQSLSQLTGTAIVHGTKII” as the sequence, how does the “soluble on expression in E. coli” value read?
A: not soluble

Q: For “GPGSMLHPYIAGFDGLTCVAGTPADTLARNPDTGTTGRGTGSGVEGVFGTSLDVAGQLAGFETLTSASLNNNFLYDGLPSSGVTLREPLLSTHLTRSPTTLSTVGEAAMQPTQNPTQTPQQDPLPDLNTLATNAFFPFPSAAGAASAEGGQQQMATANLYGASQLESIMKASAGDGKSASTAPEPAANNLLGRLTVSTLAAQSATPGTSPQSQPCPVPQFTPLGAGACSNASRSSAPSYSSASVPIGCGPQMCSGDTSFLYPNFVNEMSSVTPPQSVQGHTEGFVAGVTTPPAMPMNSSTMSNKGGSMNDNTSTSLSQATSSGIATSSGQPNDVEVRSNLFVCGLPVSVRDKELLELFEKHGEIESAKVMLDIHTGRIRGIAFVKFKNVEHAENAVDALNGTTVNGHQITVRVANSRAAYLPGNPTNKTFVRNVPLTVSRTTLFEYFAQFGEVTDLSIKSDTAQGRHNPSGRSASTTEDGADDKLNIVFITYSTKEAAAKAAEATHTKTPFKECNGVPLLAKVAEDTVRRMERLSRRQRPATGAEGTREVSTSSSSTNVASMSRFAAPSMGAALPTGMMMPPMMPMAGSFPPGTFVSVPTMGNTPDLTAPTMMPASVAGDHMTALRDASGNPIYSPAQPNPATATGGMAYAMPGNMAQPSIFFSAQPPPPAINQSPPQQSQQQPQAQPQTLYISTPNGFVPAPQQHQQQQQLPQPPPPQQQQPLQFFPAPPLLPQVPQQSQQTMPMPGAAPGQLVYMQTPNGSMMPVMYGGAQPATASMLPTQQMNPYFVMMGGQPPSNQ”, which “soluble on expression in E. coli” value is on record?
A: soluble

Q: For “MIRSATKEDGQAIARLVLVILKDMELPILEEVSEEQMIDLLAEATAYPTYRYGYQRILVYEHAGEVAGIAVGYPAEDEKIIDEPLREVFKKHGLAEDVRLFIEEETLPNEWYLDTISVDERFRGMGIGSKLLDALPEVAKASGKQALGLNVDFDNPGARKLYASKGFKDVTTMTISGHLYNHMQKEV”, which “soluble on expression in E. coli” value is on record?
A: not soluble
